Patent US20250019443A1 (DUKE UNIVERSITY, published 2025)
Read-outs that look alike come from different tables or passages of the source.

Legend:
[1] = target: HLA-E-RL9SIV single chain trimer on transfected 293T cells (human, UniProt P61769 21-119; P13747 22-358); assay: flow cytometry, SCT-transfected 293T cells, MFI bar chart [panel E]
[2] = target: T1, RL9HIV (peptide pulsed K562-HLA-E cells) (human); assay: flow cytometry on peptide-pulsed K562-HLA-E cells; AF647 anti-mouse Ig(H+L)
T1 construct: cell surface

[3] = target: T2, RL9 SIV (peptide pulsed K562-HLA-E cells) (human); assay: as above
T2 construct: cell surface

[4] = target: T3, Mtb44 (peptide pulsed K562-HLA-E cells) (human); assay: as above
T3 construct: cell surface

[5] = target: T4, soluble HLA-E-VL9 complex (HLA-E*01:03, β2M, VL9 peptide) (human)
[6] = target: T4, soluble HLA-E-VL9 complex (HLA-E*01:03, …); remark: listed apart in the source
[7] = target: HLA-E-RL9HIV with a mutation at P1 (arginine to valine) on transfected 293T cells (human, UniProt P61769 21-119; P13747 22-358); assay: flow cytometry on transfected HEK 293T cells
[8] = target: T4, soluble HLA-E-VL9 complex (HLA-E*01:03, …); remark: listed apart in the source
[9] = target: T4, soluble HLA-E-VL9 complex (HLA-E*01:03, …); remark: listed apart in the source

B1: CA172 (antibody, V domains shown)
VH: QVQLVESGGGLVKPGGSLRLSCAASGFTFSDYYMSWIRQAPGKGLEWVSYISSSSSYTNYADSVKGRFTISRDNAKNSLYLQMNSLRAEDTAVYYCARALRYFDWYDYWGQGTLVTVSS
VL: EIVLTQSPDFQSVTPKGKVTITCRASQSIGSSLHWYQQKPDQSPKLLIKYASQSFSGVPSRFSGSGSGTEFTLTISSLQPEDFATYYCQQLNSYSPITFGQGTRLEIK
**Q.** Does B1 bind [1]?
**A.** no binding (tested: 2 µg/ml)

B2: 3H4 IgM (murine HLA-E-VL9-specific IgM monoclonal antibody 3H4) (antibody, V domains shown)
VH: EVQLQESGPELVKPGASVKIPCKASGYTFTDYNMDWVKQSHGKSLEWIGDINPNNGGTIYNQKFKGKATLTVDKSSSTAYMELRSLTSEDTAVYYCARPDYYGSSYGWYFDVWGTGTTVTVSS
VL: DIVITQSPSSMYASLGERVTITCKASQDINSYLSWFQQKPGKSPKTLIYRANRLVDGVPSRFSGSGSGQDYSLTISSLEYEDMGIYYCLQYDEFPLTFGAGTKLELK
notes: also called mAb 3H4; IgM 3H4
**Q.** Which MFI [2] does the source give for B2 here?
**A.** 1520

**Q.** What about the MFI [3] of the same binder?
**A.** 1580

**Q.** And the MFI [4]?
**A.** 1180

B3: 3H4 Gv3 (antibody, V domains shown)
VH: EVQLQESGPELVKPGASVKIPCKASGYTFTDYNMDWVKQSHGKSLEWIGDINPNNGGTIYNQKFKGKATLTVDKSSSTAYMELRSLTSEDTAVYYCARPDSAQYSYGWYFDVWGTGTTVTVSS
VL: DIVITQSPSSMYASLGERVTITCKASQDINSYLSWFQQKPGKSPKTLIYRANRLVDGVPSRFSGSGSGQDYSLTISSLEYEDMGIYYCLQYDEFPLTFGAGTKLELK
**Q.** How did the Kd [5] turn out when B3 was run?
**A.** 223 nM

B4: 3H4G_v31 (antibody, V domains shown)
VH: EVQLQESGPELVKPGASVKIPCKASGYTFTDYNMDWVKQSHGKSLEWIGDINPNNGGTIYNQKFKGKATLTVDKSSSTAYMELRSLTSEDTAVYYCARPDSAQYRWNWYFDVWGTGTTVTVSS
VL: DIVITQSPSSMYASLGERVTITCKASQDINSYLSWFQQKPGKSPKTLIYRANRLVDGVPSRFSGSGSGQDYSLTISSLEYEDMGIYYCLQYDEFPLTFGAGTKLELK
notes: also called 3H4_Gv31_G1.4A
**Q.** With B4 as the binder, how does the Kd [6] read?
**A.** 62.4 nM

**Q.** What about the koff [6] of the same binder?
**A.** 0.0112 s⁻¹

**Q.** And the kon [6]?
**A.** 180000 M⁻¹ s⁻¹

**Q.** Does B4 bind [7]?
**A.** binds

B5: 3H4 Gv7 (antibody, V domains shown)
VH: EVQLQESGPELVKPGASVKIPCKASGYTFTDYNMDWVKQSHGKSLEWIGDINPNNGGTIYNQKFKGKATLTVDKSSSTAYMELRSLTSEDTAVYYCARPDGARWSYGWYFDVWGTGTTVTVSS
VL: DIVITQSPSSMYASLGERVTITCKASQDINSYLSWFQQKPGKSPKTLIYRANRLVDGVPSRFSGSGSGQDYSLTISSLEYEDMGIYYCLQYDEFPLTFGAGTKLELK
**Q.** With B5 as the binder, how does the Kd [8] read?
**A.** 735 nM

**Q.** What about the koff [8] of the same binder?
**A.** 0.0345 s⁻¹

**Q.** What about the kon [8] of the same binder?
**A.** 47000 M⁻¹ s⁻¹

**Q.** And the Kd [9]?
**A.** 994 nM

**Q.** What about the koff [9] of the same binder?
**A.** 0.0349 s⁻¹

**Q.** And the kon [9]?
**A.** 35200 M⁻¹ s⁻¹
